Reference: patent US20240181073A1, “Antibody-Drug Conjugates Comprising an Anti-BCMA Antibody” (Sorrento Therapeutics, Inc., priority 2021, published 2024)

What was measured:
[1] = biological target: T1, Human BCMA (B Cell Maturation Antigen) (human, UniProt Q02223 1-184); test: cell-based or functional assay
T1 sequence: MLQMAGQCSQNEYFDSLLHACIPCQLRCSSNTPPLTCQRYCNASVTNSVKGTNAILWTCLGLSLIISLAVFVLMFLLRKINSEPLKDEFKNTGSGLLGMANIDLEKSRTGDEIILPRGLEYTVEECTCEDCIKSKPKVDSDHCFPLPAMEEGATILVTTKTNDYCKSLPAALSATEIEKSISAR

[2] = biological target: T1, Human BCMA (B Cell Maturation Antigen); test: cell-based or functional assay; remark: listed apart in the source
[3] = biological target: T1, Human BCMA (B Cell Maturation Antigen); test: cell-based or functional assay; remark: listed apart in the source
BCMA-positive NCI-H929 = test: In vitro cytotoxicity assay (CellTiter-Glo 2.0, 384-well), Example B2; type: cell-based, human
Method: (§1) The in vitro efficacies of ADCs anti-BCMA-Compound 50, anti-BCMA-Compound 51, anti-BCMA-Compound 52, and anti-BCMA-Compound 53, were compared to anti-BCMA-Compound 3. Anti-BCMA-AB1 clone was conjugated with compounds 50, 51, 52, 53 or 3 and the ADCs were evaluated using the following human cancer cell lines: BCMA-negative K562 and BCMA-positive NCI-H929, purchased from the American Type Culture Collection (ATCC; Manassas, VA).
(§2) Cell Culture Method: The cell lines were cultured in RPMI-1640 medium (Catalog #10-041-CV: Corning) supplemented with 10-20% fetal bovine serum (FBS; Catalog #MT35011CV; Corning) and 1× penicillin-streptomycin (Catalog #30-002-Cl, Corning) and maintained at 37° C. in a 5% C02 humidified environment. Viable cell counts were made by Trypan blue exclusion using a Countess or Countess II automated cell counter.
(§3) The in vitro assays were performed as follows: All cells were harvested by removal of a portion of the cell culture suspension followed by centrifugation at 300 g for 5 minutes, followed by resuspension in cell culture medium (described above in Cell Culture method), viable cell count (as described above in Cell Culture method), and then seeded into 384-well white wall clear bottom plates (Catalog #3765, Corning) at a density of 2,500 cells/well in growth media. Plates were maintained at 37° C. The outer wells of plates contained medium only and were used for background subtraction for the cell viability assay. Working solutions of test articles were prepared at 2× final concentrations with 5-fold serial dilutions in complete growth medium. Cell treatment was performed in either technical triplicates or duplicates and maintained at 37° C. for 120-hour assay. After treatment, cell viability was determined by CellTiter-Glo 2.0 assay (Catalog #G9243; Promega; Madison, WI, USA) based on the manufacturer's instructions. CellTiter Glo reagent reacts with ATP in metabolically active cells to give a luminescent readout that is directly proportional to the number of viable cells. Briefly, plates were removed from the incubator and equilibrated to room temperature before addition of CellTiter Glo reagent. Luminescence was measured using a Tecan Spark microplate reader (Tecan; Mannedorf, Switzerland).
(§4) Data Analysis: For Cytotoxicity assays, raw luminescence data was background subtracted with average luminescence from the outer wells containing medium only and normalized to untreated controls using Excel (Microsoft; Albuquerque, NM). Dose-response relationships and EC50 values were determined based on non-linear regression analysis of normalized data fit to a four-parameter logistic equation using GraphPad Prism 8.0.

BCMA-negative K562 = test: as above; type: cell-based, human; details: 5-day assays, FIG. 8
Method: as §1, §2, §3, §4

B1: anti-BCMA-AB2-Compound 5 (antibody, V domains shown)
VH: EVQLVESGGGLVKPGGSLRLSCAASGFTSSTAWMSWVRQAPGKGLEWVGRIKSKSDGGTTDYAAPVKGRFTISRDDSKNTLFLQMNSLKTEDTAVYYCAKGGGTYGYWGQGTTVTVSS
VL: QSALTQPASVSGSPGQSVTISCTGTSSDGGGHTYVSWYQQHPGKAPKLMIYDVSNRPSWVSNRFSGSKSGNTASLTISGLQAEDEADYYCGSYTSSGSYVFGTGTKLTVL
modifications: drug-linker Compound 5 on antibody cysteine thiols (positions not stated)
[1]
  EC50 of cell viability (Cell Titer-Glo), MM.1R (BCMA+) cells: 143 nM
  EC50 of cell viability (Cell Titer-Glo), NCI-H929 (BCMA+) cells: 10 nM

B2: anti-BCMA-AB1-Compound 2 (antibody, human IgG1, V domains shown)
VH: EVQLVESGGGLVKPGGSLRLSCAASGFTSSTAWMSWVRQAPGKGLEWVGRIKSKSDGGTTDYAAPVKGRFTISRDDSKNTLFLQMNSLKTEDTAVYYCAKGGGTYGYWGQGTTVTVSS
VL: QSVLTQPASVSGSPGQSVTISCTGTSSAHGGHYYVSWYQQHPGKAPKLMIYDVSNRPSGVSNRFSGSKSGNTASLTISGLQAEDEADYYCGSYTSSGSYVFGTGTKLTVL
modifications: drug-linker Compound 2 on antibody cysteine thiols (positions not stated)
[2]
  EC50 of cell viability (Cell Titer-Glo), MM.1R (BCMA+) cells, 5-day assay: 0.987 nM
  EC50 of cell viability (Cell Titer-Glo), NCI-H929 (BCMA+) cells, 5-day assay: 0.316 nM

B3: anti-BCMA-AB2-Compound 7 (antibody, V domains shown)
VH: EVQLVESGGGLVKPGGSLRLSCAASGFTSSTAWMSWVRQAPGKGLEWVGRIKSKSDGGTTDYAAPVKGRFTISRDDSKNTLFLQMNSLKTEDTAVYYCAKGGGTYGYWGQGTTVTVSS
VL: QSALTQPASVSGSPGQSVTISCTGTSSDGGGHTYVSWYQQHPGKAPKLMIYDVSNRPSWVSNRFSGSKSGNTASLTISGLQAEDEADYYCGSYTSSGSYVFGTGTKLTVL
modifications: drug-linker Compound 7 on antibody cysteine thiols (positions not stated)
[1]
  EC50 of cell viability (Cell Titer-Glo), MM.1R (BCMA+) cells: 259 nM
  EC50 of cell viability (Cell Titer-Glo), NCI-H929 (BCMA+) cells: 19.4 nM

B4: anti-BCMA-AB2-Compound 6 (antibody, V domains shown)
VH: EVQLVESGGGLVKPGGSLRLSCAASGFTSSTAWMSWVRQAPGKGLEWVGRIKSKSDGGTTDYAAPVKGRFTISRDDSKNTLFLQMNSLKTEDTAVYYCAKGGGTYGYWGQGTTVTVSS
VL: QSALTQPASVSGSPGQSVTISCTGTSSDGGGHTYVSWYQQHPGKAPKLMIYDVSNRPSWVSNRFSGSKSGNTASLTISGLQAEDEADYYCGSYTSSGSYVFGTGTKLTVL
modifications: drug-linker Compound 6 on antibody cysteine thiols (positions not stated)
[1]
  EC50 of cell viability (Cell Titer-Glo), MM.1R (BCMA+) cells: 129 nM
  EC50 of cell viability (Cell Titer-Glo), NCI-H929 (BCMA+) cells: 9.44 nM

B5: anti-BCMA-AB1-Compound 7 (antibody, human IgG1, V domains shown)
VH: EVQLVESGGGLVKPGGSLRLSCAASGFTSSTAWMSWVRQAPGKGLEWVGRIKSKSDGGTTDYAAPVKGRFTISRDDSKNTLFLQMNSLKTEDTAVYYCAKGGGTYGYWGQGTTVTVSS
VL: QSVLTQPASVSGSPGQSVTISCTGTSSAHGGHYYVSWYQQHPGKAPKLMIYDVSNRPSGVSNRFSGSKSGNTASLTISGLQAEDEADYYCGSYTSSGSYVFGTGTKLTVL
modifications: drug-linker Compound 7 on antibody cysteine thiols (maleimide conjugation; positions not stated)
[3]
  EC50 of cell viability (Cell Titer-Glo), MM.1R (BCMA+) cells, 4-day assay: 37.7 nM
  EC50 of cell viability (Cell Titer-Glo), NCI-H929 (BCMA+) cells, 4-day assay: 2.64 nM

B6: ADC-50 (conjugate)
VH: EVQLVESGGGLVKPGGSLRLSCAASGFTSSTAWMSWVRQAPGKGLEWVGRIKSKSDGGTTDYAAPVKGRFTISRDDSKNTLFLQMNSLKTEDTAVYYCAKGGGTYGYWGQGTTVTVSS
VL: QSVLTQPASVSGSPGQSVTISCTGTSSAHGGHYYVSWYQQHPGKAPKLMIYDVSNRPSGVSNRFSGSKSGNTASLTISGLQAEDEADYYCGSYTSSGSYVFGTGTKLTVL
BCMA-positive NCI-H929; 5-day assays, FIG. 8
  effect on NCI-H929 cell viability: dose-dependently reduced
BCMA-positive NCI-H929; NCI-H929
  decrease in potency, ADC-50 (C-lock linkage) relative to ADC-53 (PFP linkage): more than 2 fold
BCMA-positive NCI-H929; Table 7, 120-hour (5-day) assay, AB1 clone
  EC50: 0.76 nM
BCMA-positive NCI-H929; comparison of linker chemistry among C-lock conjugations
  EC50 order of magnitude: sub-nanomolar
BCMA-negative K562
  activity against K562 cells: did not show activity

B7: anti-BCMA-AB1-Compound 8 (antibody, human IgG1, V domains shown)
VH: EVQLVESGGGLVKPGGSLRLSCAASGFTSSTAWMSWVRQAPGKGLEWVGRIKSKSDGGTTDYAAPVKGRFTISRDDSKNTLFLQMNSLKTEDTAVYYCAKGGGTYGYWGQGTTVTVSS
VL: QSVLTQPASVSGSPGQSVTISCTGTSSAHGGHYYVSWYQQHPGKAPKLMIYDVSNRPSGVSNRFSGSKSGNTASLTISGLQAEDEADYYCGSYTSSGSYVFGTGTKLTVL
modifications: drug-linker Compound 8 on antibody cysteine thiols (maleimide conjugation; positions not stated)
[3]
  EC50 of cell viability (Cell Titer-Glo), MM.1R (BCMA+) cells, 4-day assay: 348 nM
  EC50 of cell viability (Cell Titer-Glo), NCI-H929 (BCMA+) cells, 4-day assay: 5.15 nM
